Data as given in the RNAGym collection of RNA variant scans (doi:10.1093/molbev/msab373).

B1: Azoarcus group I ribozyme (parent)
chain: GUGCCUUGCGCCGGGAAACCACGCAAGGGAUGGUGUCAAAUUCGGCGAAACCUAAGCGCCCGCCCGGGCGUAUGGCAACGCCGAGCCAAGCUUCGGCGCCUGCGCCGAUGAAGGUGUAGAGACUAGACGGCACCCACCUAAGGCAAACGCUAUGGUGAAGGCAUAGUCCAGGGAGUGGCGAAAGUCACACAAACCGG

Variants of: B1
Assay: reverse-splicing fitness (ratio to wild type); higher = more active; in vitro selection; Mg2+ level not given
How it was run: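 An in vitro group I ribozyme library with randomized positions was T7-transcribed and gel-purified. In triplicate, 10 pmol RNA in EPPS pH 7.5 was reacted with 50 pmoles of a 30-nt RNA substrate for 1 h at 37 °C across several added MgCl2 levels (1–48 mM), then stopped with EDTA. Products were reverse transcribed from a substrate-complementary primer, PCR-amplified and sequenced (HiSeq 4000). Fitness is a variant's read proportion after selection over that before, normalised to wild type.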
Work on C82G A111C A120C C150A C169U U176A yielded a reverse-splicing fitness of 0.015. C82G A111C A120C A145U C150A gave a reverse-splicing fitness of 0.011. With C82G A111C A120C A145U C150U the reverse-splicing fitness was 0.0335. In the case of C82G A111C A120C A145U C150G, the reverse-splicing fitness is reported as 0.00916. Work on C82G A111C A120G A145U C150G C169A yielded a reverse-splicing fitness of 0.00965. C82G A111C A120G A145U C150G C169G showed a reverse-splicing fitness of 0.00781. C82G A111C A120C C150U C169G gave a reverse-splicing fitness of 0.00825. For C82G A111C A120C C150U C169U, the reverse-splicing fitness was 0.0139. For C82G A111C A120C C150U C169A, the reverse-splicing fitness was 0.0099. Work on C82G A111C A120C A145G C150A C169U yielded a reverse-splicing fitness of 0.0117. With C82G A111C A120C A145U C150U U176A the reverse-splicing fitness was 0.0132. For C82G A111C A120C A145U C150U U176G, the reverse-splicing fitness was 0.00688. In the case of C82G A111C A120C A145U C150U U176C, the reverse-splicing fitness is reported as 0.02. With C82G A111C A120C C169U U176A the reverse-splicing fitness was 0.0183. C82G A111C A120C C169U U176G gave a reverse-splicing fitness of 0.00655. Variant C82G A111C A120C C169U U176C has a reverse-splicing fitness of 0.0163. In the case of C82G A111C A120G A145C U176C, the reverse-splicing fitness is reported as 0.0166. For C82G A111C A120G A145C U176G, the reverse-splicing fitness was 0.00507. In the case of C82G A111C A120G A145C U176A, the reverse-splicing fitness is reported as 0.0152. C82G A111C A120G A145G C150A C169A U176C showed a reverse-splicing fitness of 0.0198. C82G A111C A120G A145G C150A C169A U176G showed a reverse-splicing fitness of 0.00723. C82G A111C A120G A145G C150A C169A U176A showed a reverse-splicing fitness of 0.0181. Variant C82G A111C A120G A145C C169U U176A has a reverse-splicing fitness of 0.0164. Work on C82G A111C A120G A145C C169U U176C yielded a reverse-splicing fitness of 0.0154. Work on C82G A111C A120G A145C C169U U176G yielded a reverse-splicing fitness of 0.00406. Variant C82G A111C A120C A145U C150A C169A U176G has a reverse-splicing fitness of 0.00868. For C82G A111C A120C A145U C150A C169A U176A, the reverse-splicing fitness was 0.0163. Variant C82G A111C A120C A145U C150A C169A U176C has a reverse-splicing fitness of 0.0129. With C82G A111C A120G A145C C150A C169G U176A the reverse-splicing fitness was 0.0248. C82G A111C A120G A145C C150A C169G U176C showed a reverse-splicing fitness of 0.0158. Work on C82G A111C A120G A145C C150A C169G U176G yielded a reverse-splicing fitness of 0.00529. With C82G A111C A120C A145U C150U C169G U176A the reverse-splicing fitness was 0.0133. With C82G A111C A120C A145U C150U C169G U176G the reverse-splicing fitness was 0.0072. C82G A111C A120C A145U C150U C169G U176C gave a reverse-splicing fitness of 0.0162. Work on C82G A111C A120G A145U C150A C169U U176C yielded a reverse-splicing fitness of 0.0124. C82G A111C A120G A145U C150A C169U U176G showed a reverse-splicing fitness of 0.00547. In the case of C82G A111C A120G A145U C150A C169U U176A, the reverse-splicing fitness is reported as 0.0169. C82G A111C A120C A145U U176G gave a reverse-splicing fitness of 0.00884. C82G A111C A120C A145U U176A showed a reverse-splicing fitness of 0.0196. C82G A111C A120C A145U U176C showed a reverse-splicing fitness of 0.0239. For C82G A111C A120C A145G C169A U176C, the reverse-splicing fitness was 0.0254. In the case of C82G A111C A120C A145G C169A U176G, the reverse-splicing fitness is reported as 0.00796. C82G A111C A120C A145G C169A U176A gave a reverse-splicing fitness of 0.0223. Variant C82G A111C A120C A145U C150G U176G has a reverse-splicing fitness of 0.00383. With C82G A111C A120C A145U C150G U176A the reverse-splicing fitness was 0.00549. Work on C82G A111C A120C A145U C150G U176C yielded a reverse-splicing fitness of 0.0099. C82G A111C A120C C150A U176G showed a reverse-splicing fitness of 0.00842. Work on C82G A111C A120C C150A U176A yielded a reverse-splicing fitness of 0.0125. Variant C82G A111C A120C C150A U176C has a reverse-splicing fitness of 0.0203. With C82G A111C A120G A145C C169G the reverse-splicing fitness was 0.0134. Work on C82G A111C A120G A145C C169A yielded a reverse-splicing fitness of 0.00807. Variant C82G A111C A120G A145C C169U has a reverse-splicing fitness of 0.00967. Work on C82G A111C A120G A145G C150U C169U U176C yielded a reverse-splicing fitness of 0.0145. Variant C82G A111C A120G A145G C150U C169U U176A has a reverse-splicing fitness of 0.0141. Work on C82G A111C A120G A145G C150U C169U U176G yielded a reverse-splicing fitness of 0.00501. For C82G A111C A120C A145G C150U C169G, the reverse-splicing fitness was 0.00759. In the case of C82G A111C A120C A145G C150U C169U, the reverse-splicing fitness is reported as 0.0124. C82G A111C A120C A145G C150U C169A gave a reverse-splicing fitness of 0.0101. With C82G A111C A120C A145U C169G the reverse-splicing fitness was 0.00877. With C82G A111C A120C A145U C169A the reverse-splicing fitness was 0.00731. Variant C82G A111C A120C A145U C169U has a reverse-splicing fitness of 0.0143. C82G A111C A120G A145U C150A C169G U176G showed a reverse-splicing fitness of 0.00522. Variant C82G A111C A120G A145U C150A C169G U176C has a reverse-splicing fitness of 0.0153. For C82G A111C A120G A145U C150A C169G U176A, the reverse-splicing fitness was 0.0126. C82G A111C A120G A145G C169A U176C gave a reverse-splicing fitness of 0.0271. Work on C82G A111C A120G A145G C169A U176G yielded a reverse-splicing fitness of 0.00447. Variant C82G A111C A120G A145G C169A U176A has a reverse-splicing fitness of 0.0209. In the case of C82G A111C A120C A145G C150G C169U U176C, the reverse-splicing fitness is reported as 0.0117. Variant C82G A111C A120C A145G C150G C169U U176G has a reverse-splicing fitness of 0.0072. C82G A111C A120C A145G C150G C169U U176A gave a reverse-splicing fitness of 0.0116. For C82G A111C A120C C150G C169A U176C, the reverse-splicing fitness was 0.0137. C82G A111C A120C C150G C169A U176A gave a reverse-splicing fitness of 0.00918. In the case of C82G A111C A120C C150G C169A U176G, the reverse-splicing fitness is reported as 0.00619. For C82G A111C A120G A145G C150A C169U U176C, the reverse-splicing fitness was 0.0159. Work on C82G A111C A120G A145G C150A C169U U176A yielded a reverse-splicing fitness of 0.014. In the case of C82G A111C A120G A145G C150A C169U U176G, the reverse-splicing fitness is reported as 0.00638. C82G A111C A120G A145C C150G C169G showed a reverse-splicing fitness of 0.00722. With C82G A111C A120G A145C C150G C169A the reverse-splicing fitness was 0.0084. With C82G A111C A120G A145C C150G C169U the reverse-splicing fitness was 0.00721. Work on C82G A111C A120C C169U yielded a reverse-splicing fitness of 0.0148. Work on C82G A111C A120C C169G yielded a reverse-splicing fitness of 0.00886. C82G A111C A120C C169A showed a reverse-splicing fitness of 0.00716. Work on C82G A111C A120C A145G U176A yielded a reverse-splicing fitness of 0.0172.
